Measurements from publication PMC2212760 (The Journal of Experimental Medicine, 2005).

Legend:
[1] = target: T1, FPRL2 (Homo sapiens, UniProt P25089); experiment: aequorin-based functional assay on FPRL2-expressing CHO-K1 cells; settings: aequorin assay (FMLP, SHAAG: aequorin and cAMP assays)
T1 sequence (P25089 1-353): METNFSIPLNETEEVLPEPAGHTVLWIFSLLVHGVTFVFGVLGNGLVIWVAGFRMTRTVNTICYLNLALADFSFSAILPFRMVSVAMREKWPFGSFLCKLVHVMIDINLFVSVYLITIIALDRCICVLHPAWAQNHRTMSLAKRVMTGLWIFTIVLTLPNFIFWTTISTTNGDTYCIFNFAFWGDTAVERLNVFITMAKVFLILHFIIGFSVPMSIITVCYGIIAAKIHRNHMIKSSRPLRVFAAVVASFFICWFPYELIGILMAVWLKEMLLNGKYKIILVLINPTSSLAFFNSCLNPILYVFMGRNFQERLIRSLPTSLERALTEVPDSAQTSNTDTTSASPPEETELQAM

[2] = target: T1, FPRL2; settings: not depicted

NSLFGSVETWPWQVL [F2L[7–21]]
activity on FPRL2 [1]: totally inactive | activity in FPRL2 binding assay [2]: totally inactive
